Here are results for two molecules from US20140031283A1, “ANTICANCER FUSION PROTEIN” (ADAMED SP. Z O.O., priority 2011, published 2014).

Values joined by “and” are separate entries in the source; they are usually repeats but may differ in a detail not shown here. Equal values may be shown once.

In one test the test system is SK-MES-1. Kind of test: MTT cytotoxicity test, SK-MES-1 (human lung cancer). It is filed as cell-based. The source says: (§1) MTT assay is a colorimetric assay used to measure proliferation, viability and cytotoxicity of cells. It consists in decomposition of a yellow tetrazolium salt MTT (4,5-dimethyl-2-thiazolyl)-2,5-diphenyltetrazolium bromide) to the water-insoluble purple dye formazan by mitochondrial enzyme succinate-tetrazolium reductase 1. MTT reduction occurs only in living cells. Data analysis consists in determining IC50 concentration of the protein (in ng/ml), at which the 50% reduction in the number of cells occurs in the population treated compared to control cells. Results were analyzed using GraphPad Prism 5.0 software. The test was performed according to the literature descriptions (Cells, J E, (1998). Cell Biology, a Laboratory Handbook, second edition, Academic Press, San Diego; Yang, Y., Koh, L W, Tsai, J H., (2004); Involvement of viral and chemical factors with oral cancer in Taiwan, Jpn J Clin Oncol, 34 (4), 176-183). Cell culture medium was diluted to a defined density (10^4-10^5 cells per 100 μl). Then 100 μl of appropriately diluted cell suspension was applied to a 96-well plate in triplicates. Thus prepared cells were incubated for 24 h at 37° C. in 5% or 10% CO2, depending on the medium used, and then to the cells (in 100 μl of medium) further 100 μl of the medium containing various concentrations of tested proteins were added. In the case of combination hTRAIL114-281 and p21WAF effector protein, 100 μl of the medium containing mixture of hTRAIL114-281 and p21WAF effector protein in molar ratio 1:1 was added. After incubation of the cells with tested proteins over the period of next 72 hours, which is equivalent to 3-4 times of cell division, the medium with the test protein was added with […] of MTT working solution [5 mg/ml], and incubation was continued for 3 h at 37° C. in 5% CO2. Then the medium with MTT solution was removed, and formazan crystals were dissolved by adding 100 μl of DMSO. After stirring, the absorbance was measured at 570 nm (reference filter 690 nm).
(§2) The results of in vitro cytotoxicity tests are summarized as IC50 values (ng/ml), which corresponds to the protein concentration at which the cytotoxic effect of fusion proteins is observed at the level of 50% with respect to control cells treated only with solvent. Each experiment represents the average value of at least two independent experiments performed in triplicates. As a criterion of lack of activity of protein preparations the IC50 limit of 2000 ng/ml was adopted.

In a further test the test system is MES-SA/Dx5. In words: MTT cytotoxicity test, MES-SA/Dx5 (multidrug-resistant human uterine sarcoma). It is filed as cell-based.
Text: as §1, §2
Cells selected for this test included tumor cell lines that are naturally resistant to TRAIL protein (the criterion of natural resistance to TRAIL: IC50 for TRAIL protein >2000), as well as tumor cell lines sensitive to TRAIL protein and resistant to doxorubicin line MES-SA/DX5 as a cancer line resistant to conventional anticancer medicaments.
In general terms: Tetrazolium dyes change colour on reduction, which living cells bring about.

For the next test, the system named is MDA-MB-231. Kind of test: MTT cytotoxicity test, MDA-MB-231 (human breast cancer). The conditions noted are these: Table 4, mean/SD part. The test is classed as cell-based. The source says: (§3) MTT assay is a colorimetric assay used to measure proliferation, viability and cytotoxicity of cells. It consists in decomposition of a yellow tetrazolium salt MTT (4,5-dimethyl-2-thiazolyl)-2,5-diphenyltetrazolium bromide) to the water-insoluble purple dye formazan by mitochondrial enzyme succinate-tetrazolium reductase 1. MTT reduction occurs only in living cells. Data analysis consists in determining IC50 concentration of the protein (in ng/ml), at which the 50% reduction in the number of cells occurs in the population treated compared to control cells. Results were analyzed using GraphPad Prism 5.0 software. The test was performed according to the literature descriptions (Cells, J E, (1998). Cell Biology, a Laboratory Handbook, second edition, Academic Press, San Diego; Yang, Y., Koh, L W, Tsai, J H., (2004); Involvement of viral and chemical factors with oral cancer in Taiwan, Jpn J Clin Oncol, 34 (4), 176-183). Cell culture medium was diluted to a defined density (10^4-10^5 cells per 100 μl). Then 100 μl of appropriately diluted cell suspension was applied to a 96-well plate in triplicates. […] After stirring, the absorbance was measured at 570 nm (reference filter 690 nm). […]

A further test has as its system MES-SA. Kind of test: MTT cytotoxicity test, MES-SA (human uterine sarcoma). It is filed as cell-based.
Text: as §1, §2

Another test deals with UM-UC-3. In words: MTT cytotoxicity test, UM-UC-3 (human bladder cancer). It is filed as cell-based. The conditions noted are these: Table 4, mean/SD part.
Text: as §3

A further test relates to NIH: OVCAR-3. Kind of test: MTT cytotoxicity test, NIH: OVCAR-3 (human ovarian cancer). The test is classed as cell-based. The conditions noted are these: Table 4, mean/SD part.
Text: as §3

The test system of another test is Panc-1. In words: MTT cytotoxicity test, Panc-1 (human pancreatic cancer). The test is classed as cell-based. The conditions noted are these: Table 4, mean/SD part.
Text: as §3

The next test deals with SW620. Kind of test: MTT cytotoxicity test, SW620 (human colorectal cancer). It is filed as cell-based. The conditions noted are these: Table 4, mean/SD part.
Text: as §3

The next test relates to MCF10A. In words: MTT cytotoxicity test, MCF10A (mammary epithelial cells). The test is classed as cell-based.
Text: as §1, §2

The test system of the next test is HepG2. Kind of test: MTT cytotoxicity test, HepG2 (human liver hepatoma). The test is classed as cell-based. The settings on record: Table 4, mean/SD part.
Text: as §3

A further test has as its system A549. Kind of test: MTT cytotoxicity test, A549 (human lung cancer). The test is classed as cell-based.
Text: as §1, §2

The next test has as its system PLC/PRF/5. In words: MTT cytotoxicity test, PLC/PRF/5 (human liver hepatoma). The test is classed as cell-based. The settings on record: Table 4, mean/SD part.
Text: as §3

The next test relates to NCI-H460. The settings on record: Table 4, mean/SD part.
Setting [1] is: continuous incubation over 72 h, test MTT.

B1: Ex. 3: fusion protein: 8-amino acid fragment of human fetoprotein at C-terminus of TRAIL121-281, MMP and uPA cleavage sites (protein)
chain: RVAAHITGTRGRSNTLSSPNSKNEKALGRKINSWESSRSGHSFLSNLHLRNGELVIHEKGFYYIYSQTYFRFQEEIKENTKNDKQMVQYIYKYTSYPDPILLMKSARNSCWSKDAEYGLYSIYQGGIFELKENDRIFVSVTNEHLIDMDHEASFFGAFLVGPLGLAGRVVREMTPVNPG
modifications: synthesized, a fusion protein comprising: a fragment of TRAIL protein, a fragment of human fetoprotein and cleavage sites recognized by uPA and MMP.
notes: fusion protein: 8-amino acid fragment of human fetoprotein at C-terminus of TRAIL121-281, MMP and uPA cleavage sites
Consider B1, for which the “SK-MES-1 mean (IC50)” value with SK-MES-1 (Table 4, mean/SD part) is 0.007755 µg/mL. In addition, the “MES-SA/Dx5 mean (IC50)” value in the test on MES-SA/Dx5 (Table 4, mean/SD part) stood at 0.03431 µg/mL. The “MDA-MB-231 mean (IC50)” value in the test with MDA-MB-231 is 0.02086 µg/mL. Also, the “HCT116 mean (IC50)” value with HCT-116 (Table 4, mean/SD part) stood at 0.041 µg/mL. The “MES-SA mean (IC50)” value in the test with MES-SA (Table 4, mean/SD part) is 0.03618 µg/mL. For the same molecule, in the test with UM-UC-3, the “UM-UC-3 mean (IC50)” value came out at 0.0204 µg/mL. Besides, the “OVCAR-3 mean (IC50)” value in the test with NIH: OVCAR-3 came to 0.02751 µg/mL.

B2: Ex. 23: fusion protein: 13-amino acid inhibitor of RasGAP-Aurora B interactions with 8 arginine residues at N-terminus of TRAIL121-281, uPA and MMP sites (protein)
chain: KWVVSHARLMYSFRRRRRRRRRVVRPLGLAGCRVAAHITGTRGRSNTLSSPNSKNEKALGRKINSWESSRSGHSFLSNLHLRNGELVIHEKGFYYIYSQTYFRFQEEIKENTKNDKQMVQYIYKYTSYPDPILLMKSARNSCWSKDAEYGLYSIYQGGIFELKENDRIFVSVTNEHLIDMDHEASFFGAFLVG
modifications: synthesized, a fusion protein comprising: a fragment of TRAIL protein, a peptide acting as an inhibitor of interactions RasGAP - Aurora B, cleavage sites recognized by uPA and MMP, an arginine transporting domain and a cysteine stabilizing residue.
On to B2, for which the “PANC-1 mean (IC50)” value in the test with Panc-1 was determined as 0.0229 µg/mL. Moreover, the “SK-MES-1 IC50” value in the test on SK-MES-1 (setting [1]) came to 0.00042 µg/mL. In addition, the “MES-SA/Dx5 IC50” value in the test on MES-SA/Dx5 (setting [1]) is 0.00013 µg/mL. In addition, the “SW620 mean (IC50)” value with SW620 was found to be 0.01192 µg/mL. Besides, the “MCF10A mean (IC50)” value in the test with MCF10A (Table 4, mean/SD part) came to 0.005196 µg/mL. In addition, the “MCF10A IC50” value with MCF10A (setting [1]) is 0.00598 µg/mL. In the test on HCT-116 (setting [1]), the “HCT116 IC50” value amounted to 0.00148 µg/mL. Moreover, in the test on HepG2, the “HepG2 mean (IC50)” value worked out at 0.01049 µg/mL. Moreover, the “MES-SA IC50” value in the test with MES-SA (setting [1]) amounted to 0.00061 µg/mL. In the test on A549 (Table 4, mean/SD part, listed as Ex. 23^a), the “A549 mean (IC50)” value was 0.2784 µg/mL and 0.3589 µg/mL. The “A549 IC50” value in the test with A549 (setting [1]) was determined as 0.2387 µg/mL. For the same molecule, the “PLC/PRF/5 mean (IC50)” value in the test with PLC/PRF/5 is 0.006821 µg/mL. The “NCI-H460 mean (IC50)” value with NCI-H460 stood at 0.00711 µg/mL.
